Reference: the supplement of paper PMC10567573

B1: CDC25A (parent)
chain: TVAGKHQDLKYISPEIMASVLNGK
B2: ZNF207 (parent)
chain: CHICHKKLYTGPGLAIHCMQVHKE

Variants of: B1
Test: protein stability index of a GFP-peptide fusion (GPS, HEK-293T) (PSI 1-6); higher = more stable
Details: c terminus: a fixed tail appended
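Further: lentivirally expressed fusions sorted by FACS into six bins by GFP to DsRed ratio, PSI derived from sequencing read proportions per bin multiplied by bin number.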

Protein stability index, by site and new letter:
E15: Y 1.84 | I 1.78 | W 1.76 | C 2.25
G23: D 3.57 | N 3.9 | Q 3.4 | T 3.25 | S 3.01 | E 3.69 | M 2.46 | P 2.56 | Y 2.35 | K 3.36 | V 2.61 | I 2.48 | C 2.63 | L 2.63 | W 2.33 | R 3.37 | F 2.37 | A 2.96 | H 2.9
K10: T 3.31 | Y 1.76 | W 1.62 | V 2.24 | S 2.99
V20: N 3.38 | H 3.33 | L 2.84 | Y 2.72 | D 4.35 | M 3.56 | P 3.64 | R 3.99 | I 2.63 | Q 3.68 | W 2.84 | A 3.56 | T 3.75 | S 4.11 | F 2.92 | E 4.1 | C 2.93 | K 3.73 | G 3.79
S13: H 2.71 | W 2.12 | G 3.37 | E 3.69 | L 2.49 | K 3.16 | R 3.21 | Q 3.53 | F 2.39 | D 3.73 | N 3.32 | C 2.43 | Y 2.63 | P 3.12 | V 2.65 | A 3.4 | T 3.15 | M 2.31 | I 2.19
K24: Y 2.01 | T 2.69 | N 3.21 | W 1.93 | L 2.01 | G 2.87 | V 2.09 | A 2.67 | I 2.01 | Q 3.4 | S 2.94 | H 2.44 | E 3.73 | M 2.36 | R 3.06 | C 2.42 | F 1.89 | D 3.61 | P 3.26
I16: P 4.45 | T 3.62 | M 3.62 | A 3.66 | R 3.73 | F 2.87 | N 3.8 | D 4.25 | G 3.84 | V 3.47 | L 2.86 | H 3.97 | E 4.29 | C 3.44 | Y 2.85 | K 3.42 | W 2.87 | S 3.78 | Q 4.28

Variants of: B2
Test: as above
Details: c terminus: a fixed tail appended

Protein stability index, by site and new letter:
H2: P 2.9 | K 2.91 | Y 2.74 | A 2.71 | V 2.44 | R 2.59 | F 2.76 | C 2.45 | D 4.28 | L 2.78 | T 2.87 | G 3.31 | E 3.07 | S 2.73 | I 2.46 | W 2.61 | N 3.65 | M 2.49 | Q 3.4
I3: W 2.73 | T 3.03 | G 2.48 | V 2.51 | N 2.19 | S 2.58 | D 2.24 | A 2.17 | Y 3.43 | M 2.73 | F 2.34 | Q 2.44 | L 3.09 | E 2.37 | H 3.67 | C 2.54 | R 2.52 | P 1.99 | K 3.1
C1: R 3 | T 1.94 | Y 2.84 | G 2.07 | A 2.02 | S 2.58 | P 2.69 | H 1.83 | M 2.03 | K 2.16 | E 2.76 | N 2.24 | I 1.52 | L 1.94 | D 2.78 | Q 1.8
C4: A 1.36 | H 1.6 | E 1.07 | K 1.15 | D 1.6 | L 1.39 | G 1.7 | I 3.16 | F 1.93
